Measured values published in patent publication US20240066100A1.
Blank lines part the entries; values can stand above or below the substance they belong to.

Legend:
[1] = target: human IL-18BP (amino acids 31-194), biotinylated (human) (UniProt O95998); assay: yeast display binding; details: ligand
Target sequence in this assay (O95998 other isoform, or with tags, fused parts or gaps): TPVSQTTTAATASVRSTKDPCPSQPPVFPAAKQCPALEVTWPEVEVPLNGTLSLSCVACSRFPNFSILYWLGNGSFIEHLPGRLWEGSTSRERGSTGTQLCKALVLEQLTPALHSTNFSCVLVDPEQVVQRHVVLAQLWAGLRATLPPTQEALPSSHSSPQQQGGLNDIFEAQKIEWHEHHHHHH

[2] = target: human IL-18BP (amino acids 31-194), biotinylated (human) (UniProt O95998); assay: SPR
[3] = target: human IL-18BP (amino acids 31-194), biotinylated (human) (UniProt O95998); assay: SPR, apparent KD
Target sequence in this assay (O95998 other isoform, or with tags, fused parts or gaps limits assumed, form in doubt): as the sequence (O95998 other isoform, or with tags, fused parts or gaps) above

[4] = target: human IL-18BP (amino acids 31-194), biotinylated (human) (UniProt O95998); assay: SPR, Biacore T100
Target sequence in this assay (O95998 other isoform, or with tags, fused parts or gaps limits assumed, form in doubt): as the sequence (O95998 other isoform, or with tags, fused parts or gaps) above

[5] = target: human IL-18BP (amino acids 31-194), biotinylated (human) (UniProt O95998); assay: on-yeast binding isotherm, flow cytometry
Target sequence in this assay (O95998 other isoform, or with tags, fused parts or gaps limits assumed, form in doubt): as the sequence (O95998 other isoform, or with tags, fused parts or gaps) above

[6] = target: human IL-18BP (amino acids 31-194), biotinylated (human) (UniProt O95998); assay: SPR; KD IL-18BP / KD IL-18Rα normalized to WT IL-18
Target sequence in this assay (O95998 other isoform, or with tags, fused parts or gaps limits assumed, form in doubt): as the sequence (O95998 other isoform, or with tags, fused parts or gaps) above

[7] = target: human IL-18BP (amino acids 31-194), biotinylated (human) (UniProt O95998); assay: SPR, Biacore T100; hIL-18BP as surface ligand; Exp 1
Target sequence in this assay (O95998 other isoform, or with tags, fused parts or gaps limits assumed, form in doubt): as the sequence (O95998 other isoform, or with tags, fused parts or gaps) above

[8] = target: human IL-18BP (amino acids 31-194), biotinylated (human) (UniProt O95998); assay: SPR, Biacore T100; hIL-18BP as surface ligand; Exp 2
Target sequence in this assay (O95998 other isoform, or with tags, fused parts or gaps limits assumed, form in doubt): as the sequence (O95998 other isoform, or with tags, fused parts or gaps) above

[9] = target: human IL-18BP (amino acids 31-194), biotinylated (human) (UniProt O95998); assay: SPR, Biacore T100; hIL-18BP as surface ligand, IL-18 as analyte
[10] = target: human IL-18BP (amino acids 31-194), biotinylated (human) (UniProt O95998); assay: SPR, Biacore T100; biotinylated receptor on chip, IL-18 as analyte
[11] = target: human IL-18BP (amino acids 31-194), biotinylated (human) (UniProt O95998); assay: SPR, representative sensorgram, immobilized biotinylated hIL-18BP
[12] = target: human IL-18BP (amino acids 31-194), biotinylated (human) (UniProt O95998); assay: SPR, biotinylated receptor on streptavidin capture chip, IL-18 as free analyte

Sequence of wild-type human Interleukin-18 (mature form) (Q14116 37-193): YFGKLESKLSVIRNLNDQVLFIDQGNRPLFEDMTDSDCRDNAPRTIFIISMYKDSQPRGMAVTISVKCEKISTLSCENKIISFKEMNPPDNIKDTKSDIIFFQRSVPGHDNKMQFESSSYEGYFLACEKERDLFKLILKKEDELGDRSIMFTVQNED

Substance: human decoy-to-the-decoy (D2D) IL-18 consensus variant SEQ ID NO: 123 (from UniProt Q14116 37-193)
- Kd [1]: 5.9 nM

Substance: human decoy-to-the-decoy (D2D) IL-18 consensus variant SEQ ID NO: 124 (from UniProt Q14116 37-193)
- Kd [1]: 7.9 nM

Substance: human decoy-to-the-decoy (D2D) IL-18 consensus variant SEQ ID NO: 125 (from UniProt Q14116 37-193)
- Kd [1]: 8.9 nM

Substance: human decoy-to-the-decoy (D2D) IL-18 variant SEQ ID NO: 94 (from UniProt Q14116 38-193)
- Kd [1]: 6.4 nM

Substance: human decoy-to-the-decoy (D2D) IL-18 variant SEQ ID NO: 98 (from UniProt Q14116 38-193)
- Kd [1]: 5.4 nM

Substance: human decoy-to-the-decoy (D2D) IL-18 variant SEQ ID NO: 99 (from UniProt Q14116 38-193)
- Kd [1]: 4.8 nM

Substance: human decoy-to-the-decoy (D2D) IL-18 variant SEQ ID NO: 101 (from UniProt Q14116 37-193)
- Kd [1]: 8.8 nM

Substance: human decoy-to-the-decoy (D2D) IL-18 variant SEQ ID NO: 120 (from UniProt Q14116 37-193)
- Kd [1]: 4.2 nM

Substance: wild-type human Interleukin-18 (mature form) (from UniProt Q14116 37-193)
- Kd ([2]; ligand): 0.6 nM
- Kd [1]: 2.1 nM

- Kd [3]: < 0.1 nM
- Dissociation Constant Ratio normalized to WT IL-18 [4]: 1
- KD ratio IL-18BP/IL-18Rα [4]: 0.000648
- Dissociation Constant Ratio normalized to WT IL-18 [5]: 1
- KD ratio IL-18BP/IL-18Rα [5]: 0.295
- Kd [5]: 7.08 nM
- IL-18 BP:Rα Dissociation Constant Ratio [6]: 1
- Kd [7]: 0.000694 nM
- Kd [8]: 0.00043 nM
- koff [9]: 2.23e-07 s⁻¹
- kon [9]: 518000 M⁻¹ s⁻¹
- Kd [10]: 0.0019 nM
- Kd [11]: 0.002 nM
- Kd [12]: < 1 nM
- Kd [2]: 0.002 nM
Substance: wild-type human Interleukin-18 (mature form) (from UniProt Q14116 37-193) (ligand)
